Here are results for one substance from patent publication US20140315817A1.

For the assay, the target named is FLAG-tagged, single-chain human FcRn (human) (UniProt P61769). Briefly: ELISA at pH 5.5, HSA variant coated, FLAG-tagged single-chain FcRn titrated; column '~Kd at pH 5.5', rank 13; the sheet gives the mutation of HSA-18 as V424I.
Sequence of FLAG-tagged, single-chain human FcRn (human) (P61769 other isoform, or with tags, fused parts or gaps limits assumed): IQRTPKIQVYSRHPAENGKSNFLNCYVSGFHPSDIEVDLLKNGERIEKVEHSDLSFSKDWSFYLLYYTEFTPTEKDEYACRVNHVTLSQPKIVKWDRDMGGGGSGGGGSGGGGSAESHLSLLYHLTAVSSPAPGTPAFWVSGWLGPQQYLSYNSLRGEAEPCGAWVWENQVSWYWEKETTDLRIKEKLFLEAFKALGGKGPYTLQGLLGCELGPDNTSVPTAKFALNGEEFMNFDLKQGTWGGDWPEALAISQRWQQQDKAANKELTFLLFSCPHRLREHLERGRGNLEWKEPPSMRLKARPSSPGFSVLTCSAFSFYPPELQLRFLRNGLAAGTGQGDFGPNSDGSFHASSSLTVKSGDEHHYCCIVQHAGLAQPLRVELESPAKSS

“hsa-18: full length HSA V241I (from UniProt P02768 25-609)” gave a Kd greater than 100 nM.

One may read the Kd as the free concentration of one partner at which half of the binding sites on the other are occupied at equilibrium, for simple one-to-one binding. The low end stands for higher affinity, the high end for lower affinity.
